Measured values published in article PMC3299731 (PLoS ONE, 2012).

Legend:
translinB2 (untagged, …) = target: translinB2 (untagged, co-expressed);TRAXB2 (human;human, UniProt Q15631;Q99598 1-228;1-290, R86T;H88N;H90N|Q115L;H117N;R118A); assay: EMSA; 100 nM complex, 100 nM DNA; 25 mM Tris-HCl pH 8.0, 100 mM NaCl, 1 mM EDTA, 30 min; temperature not stated; 4.5% native PAGE in 0.5x TBE; conditions: protein: recombinant;recombinant; tags: none;N-terminal 6xHis; label: 5'-32P (unlabeled in agarose EMSA)
translinB2 (untagged, co-expressed);TRAXB2, sequence (Q15631 whole entry R86T/H88N/H90N, chain 1 of 2): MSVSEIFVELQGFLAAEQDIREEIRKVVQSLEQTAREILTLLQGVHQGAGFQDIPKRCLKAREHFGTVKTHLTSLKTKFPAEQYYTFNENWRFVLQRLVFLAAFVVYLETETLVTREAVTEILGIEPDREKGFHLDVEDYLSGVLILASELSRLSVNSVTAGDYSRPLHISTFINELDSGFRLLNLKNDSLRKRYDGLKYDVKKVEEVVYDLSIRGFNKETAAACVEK
translinB2 (untagged, co-expressed);TRAXB2, sequence (Q99598 whole entry Q115L/H117N/R118A, chain 2 of 2): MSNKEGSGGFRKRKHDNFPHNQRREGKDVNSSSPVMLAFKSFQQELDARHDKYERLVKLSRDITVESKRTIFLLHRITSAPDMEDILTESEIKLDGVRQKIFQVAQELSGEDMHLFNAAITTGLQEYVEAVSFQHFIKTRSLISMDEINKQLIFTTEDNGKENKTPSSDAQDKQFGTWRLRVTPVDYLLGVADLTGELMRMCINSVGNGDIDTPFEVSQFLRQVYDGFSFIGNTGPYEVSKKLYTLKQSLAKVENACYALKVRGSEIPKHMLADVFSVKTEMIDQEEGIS

[1] = target: translinB2 (untagged, co-expressed);TRAX (human;human, UniProt Q15631;Q99598 1-228;1-290, R86T;H88N;H90N|); assay: as above; conditions: protein: recombinant;recombinant; tags: none;N-terminal 6xHis; label: 5'-32P (unlabeled in agarose EMSA)
translinB2 (untagged, co-expressed);TRAX, sequence (Q15631 whole entry R86T/H88N/H90N, chain 1 of 2): as the sequence (Q15631 whole entry R86T/H88N/H90N, chain 1 of 2) above
translinB2 (untagged, co-expressed);TRAX, sequence (Q99598 whole entry, chain 2 of 2): as the sequence (Q99598 whole entry Q115L/H117N/R118A, chain 2 of 2) above, with L115Q, N117H, A118R counted along it

[2] = target: translin (untagged, co-expressed);TRAXB2 (human;human, UniProt Q15631;Q99598 1-228;1-290, |Q115L;H117N;R118A); assay: as above; conditions: protein: recombinant;recombinant; tags: none;N-terminal 6xHis; label: 5'-32P (unlabeled in agarose EMSA)
translin (untagged, co-expressed);TRAXB2, sequence (Q15631 whole entry, chain 1 of 2): as the sequence (Q15631 whole entry R86T/H88N/H90N, chain 1 of 2) above, with T86R, N88H, N90H counted along it
translin (untagged, co-expressed);TRAXB2, sequence (Q99598 whole entry Q115L/H117N/R118A, chain 2 of 2): as the sequence (Q99598 whole entry Q115L/H117N/R118A, chain 2 of 2) above

[3] = target: T1, translin (untagged, co-expressed);TRAX (human;human, UniProt Q15631;Q99598 1-228;1-290, |); assay: as above; conditions: protein: recombinant;recombinant; tags: none;N-terminal 6xHis; label: 5'-32P (unlabeled in agarose EMSA)
T1 sequence (Q15631 whole entry, chain 1 of 2): as the sequence (Q15631 whole entry R86T/H88N/H90N, chain 1 of 2) above, with T86R, N88H, N90H counted along it
T1 sequence (Q99598 whole entry, chain 2 of 2): as the sequence (Q99598 whole entry Q115L/H117N/R118A, chain 2 of 2) above, with L115Q, N117H, A118R counted along it

translinB3 (untagged, …) [4] = target: translinB3 (untagged, co-expressed);TRAXB2 (human;human, UniProt Q15631;Q99598 1-228;1-290, R192T;K193N;R194S;Y195N|Q115L;H117N;R118A); assay: EMSA; 100 nM complex, 200 nM DNA; 25 mM Tris-HCl pH 8.0, 100 mM NaCl, 1 mM EDTA, 30 min; temperature not stated; 4.5% native PAGE in 0.5x TBE; conditions: protein: recombinant;recombinant; tags: none;N-terminal 6xHis; label: 5'-32P (unlabeled in agarose EMSA)
translinB3 (untagged, co-expressed);TRAXB2, sequence (Q15631 whole entry R192T/K193N/R194S/Y195N, chain 1 of 2): as the sequence (Q15631 whole entry R86T/H88N/H90N, chain 1 of 2) above, with T86R, N88H, N90H, R192T, K193N, R194S, Y195N counted along it
translinB3 (untagged, co-expressed);TRAXB2, sequence (Q99598 whole entry Q115L/H117N/R118A, chain 2 of 2): as the sequence (Q99598 whole entry Q115L/H117N/R118A, chain 2 of 2) above

translinB3 (untagged, …) [5] = target: translinB3 (untagged, co-expressed);TRAXB3 (human;human, UniProt Q15631;Q99598 1-228;1-290, R192T;K193N;R194S;Y195N|K241N;K242T;Y244N); assay: as above; conditions: protein: recombinant;recombinant; tags: none;N-terminal 6xHis; label: 5'-32P (unlabeled in agarose EMSA)
translinB3 (untagged, co-expressed);TRAXB3, sequence (Q15631 whole entry R192T/K193N/R194S/Y195N, chain 1 of 2): as the sequence (Q15631 whole entry R86T/H88N/H90N, chain 1 of 2) above, with T86R, N88H, N90H, R192T, K193N, R194S, Y195N counted along it
translinB3 (untagged, co-expressed);TRAXB3, sequence (Q99598 whole entry K241N/K242T/Y244N, chain 2 of 2): as the sequence (Q99598 whole entry Q115L/H117N/R118A, chain 2 of 2) above, with L115Q, N117H, A118R, K241N, K242T, Y244N counted along it

[6] = target: translinB3 (untagged, co-expressed);TRAX (human;human, UniProt Q15631;Q99598 1-228;1-290, R192T;K193N;R194S;Y195N|); assay: as above; conditions: protein: recombinant;recombinant; tags: none;N-terminal 6xHis; label: 5'-32P (unlabeled in agarose EMSA)
translinB3 (untagged, co-expressed);TRAX, sequence (Q15631 whole entry R192T/K193N/R194S/Y195N, chain 1 of 2): as the sequence (Q15631 whole entry R86T/H88N/H90N, chain 1 of 2) above, with T86R, N88H, N90H, R192T, K193N, R194S, Y195N counted along it
translinB3 (untagged, co-expressed);TRAX, sequence (Q99598 whole entry, chain 2 of 2): as the sequence (Q99598 whole entry Q115L/H117N/R118A, chain 2 of 2) above, with L115Q, N117H, A118R counted along it

translinB3 = translinB3 (human, UniProt Q15631 1-228, R192T;K193N;R194S;Y195N); assay: EMSA; 100 nM octamer, 200 nM labeled DNA; 25 mM Tris-HCl pH 8.0, 100 mM NaCl, 1 mM EDTA, 30 min; temperature not stated; 4.5% native PAGE in 0.5x TBE; conditions: protein: recombinant; tags: N-terminal 6xHis; chain copies: 8; label: 5'-32P (unlabeled in agarose EMSA)
translinB3, sequence (Q15631 whole entry R192T/K193N/R194S/Y195N): as the sequence (Q15631 whole entry R86T/H88N/H90N, chain 1 of 2) above, with T86R, N88H, N90H, R192T, K193N, R194S, Y195N counted along it

[7] = target: T1, translin (untagged, co-expressed);TRAX; assay: UV-laser crosslinking (248 nm); DNA covalently linked to TRAX subunit; 25 mM Tris-HCl pH 8.0, 100 mM NaCl, 1 mM EDTA, 30 min; temperature not stated; 4.5% native PAGE in 0.5x TBE; conditions: protein: recombinant;recombinant; tags: none;N-terminal 6xHis; label: 5'-32P (unlabeled in agarose EMSA)
[8] = target: T1, translin (untagged, co-expressed);TRAX; assay: UV-laser crosslinking (248 nm); DNA covalently linked to TRAX subunit; silver stain; 25 mM Tris-HCl pH 8.0, 100 mM NaCl, 1 mM EDTA, 30 min; temperature not stated; 4.5% native PAGE in 0.5x TBE; conditions: protein: recombinant;recombinant; tags: none;N-terminal 6xHis

| Binder | binding result (translinB2 (untagged, …)) | binding result [1] | binding result [2] | binding result [3] | binding result (translinB3 (untagged, …) [4]) | binding result (translinB3 (untagged, …) [5]) | binding result [6] | binding result (translinB3) | binding result [7] | binding result [8] |
| --- | --- | --- | --- | --- | --- | --- | --- | --- | --- | --- |
| GCCCTCCTGCCCTCCTTCCGCGGG (ssDNA) [Bcl-CL1 24-mer] | binds | binds | binds | binds | no binding | no binding | no binding | no binding | binds |  |
| CCTGTAGTAATGGCTGCATTGAACAGATGCATATCTTCCCCTG (ssDNA) [43-mer (trxB2 reverse primer)] |  |  |  |  |  |  |  |  |  | binds |
